Test: yeast display, Sf9 membrane polyspecificity reagent, FACS + sequencing; frameworks hold sequencing errors
Outline: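 A nanobody's polyreactivity label depends on the gate it was sorted from. Yeast display cells were stained with 10% biotinylated, detergent-solubilized Sf9 membrane reagent for 1 hour at 4 °C, enriched on streptavidin microbeads and sorted by FACS. The low and high (top ~1%) gates were set on anti-HA fluorescence for expression and streptavidin fluorescence for reagent binding.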

Row | Sequence | polyreactivity (PSR sort gate)
1 | QVQLVESGGGLVQAGGSLRLSCAASGSTFDYYAMGWYRPAPGKERELVAGINRDDGNTYYADSVKGRFTISRDNAKNTVYLQMNSLKPEDTAVYYCAADSSWQGMDYSGQGTQVTVSS | low polyreactivity
2 | QVQLVESGGGLVQAGGSLRLSCAASGIIYWVNAMGWYRQAPGKERELVAVINRGTYYADSVKGRFTISRDNAKNTVYLQMNSLKPEDTAVYYRYAYTSTTEYDYWGLGTQVTVSS | low polyreactivity
3 | QVQLVESGGGLVQAGGSLRLSCAASGSIFEWYAMGWYRQAPGKERELVADISSLGSTYYADSVKGRFTISRDNAKNTVYLQMNSLKPEDTAVYYCNTSYIIWYDSWGQGTQVTVSS | low polyreactivity
4 | QVQLVESGGGLVQAGGSLRLSCAASGRTFIYNVMGWYRQAPGKERELVASIRSSGGSTYYADSVKGRFTISRDNAKNTVYLQMNSLKPEDTAVYYCAADRSPGIRGWPGDYWGQGTQVTVSS | low polyreactivity
5 | QVQLEESGGGLVQAGGSLRLSCAASGRIFYHYAMGWYRTAPGKERELVAAITSSGAGTYYADSVKGRFTISRDNAKNTVYLQMNSLKPEDTAVYYCAADASRRYRYWYDYWGQGTQVTVSS | high polyreactivity
6 | QFQLVESGGGLVQAGGSLRISCAATGLIYYVYAMGWYRQAPGKESELVAAIRSGGSTNNADSVKGRFTISRDNAKNTVYLQMNRLKPEDTAVYYCAVDTWYFLFQYGYYQEGDYWGQGTQVTVSS | low polyreactivity
7 | QVQLVESGGGLVQAGGSLRLSCAASGRTFVYNAMGWYRQAPGKERELVAAISSDGASTYYADSVKGRFTISRDNAKNTVYLQMNSLKPEDTAVYYCAADLLVSWWLDYDYWGQGTQVTVSS | low polyreactivity
8 | QVQLVESGGGLVQAGGSLRLSCAASGFTFTAYAMGWYRQAPGKERELVAAISRSGGSTSYADSVKGRFTISRDNAKNTVYLQMNSLKPEDTAVYYCAAGRVGWGQGTQVTVSS | high polyreactivity
9 | QVQLVESGGGLVQAGGSHRLSCAASGSIFVYNAMGCYIQAPGKERELVAGITFIGGSTYYADSVKGRFTISRDNAKNTVYLQMNSLKPEDTAVYYCNADVAPGIFYGYDSWGQGTQVTVSS | low polyreactivity
10 | QVQLVESGGGLVQAGGSLRLSCAASGIIFRYAMGWYRQAPGKERELVAAIRKSDGSTYYADSVKGRFTISRDNAKNTVYLQMNSLKPEDTAVYYCNAVTVGLYDYWGQGTQVTVSS | high polyreactivity
11 | QVQLVESGGGLVQAGGSLRLICAASGRILYYNVMVWYRQAPGKEREMVASITSVVSTNYADSVKGRFTISRDNAKNTVYLQMNSLKPEDTAVYYCAARYFSGSYSDQIWGMDYWGQGTQLTVSS | high polyreactivity
12 | QVHVVESGGGLVQAGVSLLLSCAASGRTFYRNAMGWYRQAPGKERELVAAISSRGGSTYYADSVKGRFTISRDNAKNTVYLQMNSLKPEDTAVYYCAANYGYGGDYDYWVQGTQVTVSS | high polyreactivity
13 | QVQLVESGGGLVQAGGSLRLSCAASGRTFGPYAKGWYRQAPGKERELVAAITDTGSGTFYADSVKGRFTISRDNAKNTVYFQMNSLKPEDTAVYYCNAVRKYWGQGTEVTVSS | low polyreactivity
14 | QVQHVESGGGLVQAGCSLRLSCAASGSIFSSYAMGWYRQAPGKERELVAAISQSGGDTYYADSVKGRFKISRDNAKNTVYLQMNSLKPEDTAVYYCAASVWFYPMDYWGQGTQVTVSS | low polyreactivity
15 | QVQLVESGGGLVQAGGSLRLSCAASGRIFEHYAMGWYRQAPGKERELVAAITSSGDSTYYADSVKGRFTISRDNAKNTVYLQMNSLKPEDTAVYYCNAVAYISYLWGYYLSTPYDYWGQGTQVTVSS | high polyreactivity
16 | QVQIEESGGGLVQAGGSLRLSCAASGNIFPGNDMGWYRQAPRKERELVAAITSRDGSTYYADSVKGRFTISRDNAKNTVYLQMNSLKPEDTAVYYCNTDPDLYYLATAGYWSHDYWGQGTQVTVSS | low polyreactivity
17 | QDQLVESGGGLVQAGGSLRLSCAASGSIFKYNMGWYRQAPGKERELVAAISRGGSTYYADSVKGRFTISRDNAKNTVYLQMTRLKPEDTAVYYCNAATSRRFSGMNYCGQGTQVTVSS | high polyreactivity
18 | QVQLVESGGGLVQAGGSLRLSCAVSGRTFYYYAMGWYRQAPGKERELVAAISSSGGSTYYADSVKGRFTISRDNAMNTVYLQLNRLKPEDTAVYYCNAYTTRSYGFDYWGQGTQVTVSS | high polyreactivity
19 | QDQLVESGGGLVQAGGILRLSCAASGRTFLPNAMGWYRQSPGKEREFVASINGDGTTYYADSVKGRFTISRDNAKNTVYLQMNSLKPEDTAVYYCAKDRDFSSPPTESGFDFWGQGTQVTVSS | low polyreactivity
20 | QVQLVESGGGLVQAGGSLRLSCAASGIIFDPYAMGWYRQAPGKERELVADIDNASSTYYADSVKGRFTISRDNAKNTVYLQMNSLKPEDTAVYYCAADLWYGGEYWGQGTQVTVSS | low polyreactivity
21 | QVQLVESGGGLVQAGGSLRLTCAASGFTFFYNAMGWYRQAPGKERELVAAISRGGGRTYYADSVKGRFTISRDNAKNTVYLQMNSLKPEDTAVYYCAKEYGGTRGRKLDYWGQGTQVTVSS | high polyreactivity
22 | QVQLVESGGGLVQAGGSLRLSCAASGSTFRGYTMGRNRQAPGKERELVAAISFRGTSTYYADSVKGRFTISRDNAKITVYLQMNSLIPEDTAVDYCAAVYTWGPGYGHDYWGQGTQVTVSS | low polyreactivity

Row | Sequence | polyreactivity (PSR sort gate)
23 | QVQLVESGGGLVQAGGRLGLSCAACGFICDGYAMGWYRQAPGKDRELVAAITGSGGSPYYADSVKGRFTISRDNAKNTVYLQMNSLKPEDTAVYYCNTDYYSVRSGSYWHFPGGDYWGQGTQVTVSS | low polyreactivity
24 | QVQLVETGGGIVQAGGSLRLSCAASGITFQSNTMGWYRQSPGKERELVAAITWTGGRTYYADSVKGRFTISRDNAKNTVYLQMNSLTPEDTAVYYCNADGYAICYNGKLDYWGQGTQVTVSS | high polyreactivity
25 | QVQLVESGGGLVQAGGSLRLSCAASGITFQSNDMGWYRQAPGKERELVAAISWSDDTTYYADSVKGRFTISRDNAKNTVYLQMNSLKPEDTAVYYCAAVYDSKSYYYWGQGTQVTVSS | high polyreactivity
26 | QVQLVESGGGLVQAGGSLRLSSAASGSTFQFYAMGWYRQAPGKERELVADITSGDDTNYADSVKGRFTISRDNAKNTVYLQMNSLKPEDTAVYYCAVEYILFYTRVRSYWFDYWGQGTQVTVSS | low polyreactivity
27 | QVQLVESGGGLVQAGGSLRLSCAASGFTFGSNAMGWYRQAPGKERELVAAISWSGGRTYYADSVKGRFTISRDNAKNTVYLQMNILKPEDTAVFYCNKQYVKPWYRGYYYWGQGTQVTVSS | high polyreactivity
28 | QVQLVESGGGLVQAGGRLRLSCAASGSIFTVYSMGWYRQAPGKERELVASIRFSSGRTYYADSVKGRFTISRDNAKNTVYLQMNSLKPEDTAVYYCAAETVSWYRYYYWGQGTQVTVSS | high polyreactivity
29 | QVQLVESGGGLVQAGGSLRLSCAASGIILVQYVMGWYRQAPGKERELVASISRTGGSTYYADSVKGRFTISRDNAKNTVYLQMNSLKPEDTAVYYCAALAYRYSYPRGYWGQGTQVTVSS | high polyreactivity
30 | QVQLVESGGCLVQAGGSLRLSCAPSGYTFGRNAMGWYRQAPGKEWELVATISQRGGSTYYADSVKGRFTISRDNAKNTVYLQLNSLKPEDTAVYYCSAGPIYRYRRYYYWGQGTQVTVSS | high polyreactivity
31 | QVQLVESGGGLVQAGGSLRLSCAASGNIFKSYTMGWYRQAPGKERELVAAITSGGRTNYADSVKGRFTISRDNAKNTVYLQMNSLKPEDTAVYYCAAKHFRWGTGDYWGQGTQVTVSS | high polyreactivity
32 | QVQLVESGGGLVQAGGSLRLSCAASGSTFSAYTMGWYRQAPGKERELVAAISYRGGSTYYADSVKGRFTISRDNAKNTVYLQMNSRKPEDTAVYYCAAERKHYGLYDYWGQGTQVTVSS | low polyreactivity
33 | QVQLVESGGGLVQAGGSLLLSCAASGSTLGRYAMGWYRQAPGKERELVASITWSDDSTYYADSVKGRFTISRDNAKNTVYLQMNSLKPEDTAVYYCAAAGNLYTYRFYYWGQGTQVTVSS | low polyreactivity
34 | QVQLVESGGGLVQAGGSLRLSCAASGSTFQSYAMGWYRQAPGKERELVAAITTTGTRTYYADSVKGRFTISRDNAKNTVYLQMNSLKPEDTAVYYCNAQRLQAHRTSRRYGYWGQGTQVTVSS | high polyreactivity
35 | QVQLVESGGGLVQAGGSLRLSCAASGSTFTDYDMGWYRQAPGTERELVAAITSGCSTNYADSVKGRFTISRDNAKNTVYLQMNSLKPEDTAVYYCAAADADRKYDYWGQGTQVTVTS | low polyreactivity
36 | QVQLVESGGGLVQAGGSIRLSCAASGRIFQYYAMGWYRQAPGKERELVAAISRSGGRTRYADSVKGRFTISRDNAKNTVYLQMNSLKPEDTAVYYCAASYGYDSTSLYDYWGQGTQVTVSS | high polyreactivity
37 | QVQLVDSGGGLVQEGGSLRLSCAASGSIFSTYARGWYRQAPGKEWEVVAAITRGGRTTYADSVKGRFTISRDNAKNTVYLQMNSLKPEDTAVYYCNAVGVYYWWYRLYDYWGQGTQVTLSS | high polyreactivity
38 | QVQLVESGGGLVQAGGSLRLSCAASGITFKYNAMAWYRQAPGKEMELVAAISSGGNTYYADSVKGRFTISRDNAKNTVYLQMNSLKPEDTAVYYCAAPSYDTLWHDYWGQGTQVTVSS | low polyreactivity
39 | QVQHVESGGGLVHAGGSLRLSCAASGSIASYAMGWYRHATGKEKELVAGISWSGGSTYYADSVKGRFTISRDNAKNNVYLQMISLKPEDTAVYYCAARRFCPNRDSRMGYWGQGTQVTVSS | high polyreactivity
40 | QVQLVESGGGLVPAGGSLRLSCAASGRTFFKNAMGWYRQAPGKERELVARISWNGGDSTYYADSVKGRFTISRDNAKNTVYLQMNSLKPEDTAVYSCAADTSYRPGGSRHGYGYWGQGTQVTVSS | low polyreactivity
41 | QVQLVESGGGLVQAGGSLRLSCAPSGSTYLSYAMGWYRQAPGKERELVAAITYSGGRTYYAESVKGRFTISRDNAKITVYLQMNSLKQEDTAVYYCAATGVFRDEYWGQGTQVTVSS | low polyreactivity
42 | QVQLVESGGGLVQAGGSLRLSCAASGSTFAAYAAMGWYRQAPGKERELVAAISWNGGSTFYADSVKGRFTISRDNAKNTVYLQMNSLKPEDTAVYYCAVEYYWTLDFTFTFPLSYYWGQGSQVTVSS | low polyreactivity
43 | QVQLVEAGGGLVQAGGTLRLSCAASGSNFSENTMGWYRPAPGKKRELVADITSGGSTNYADSVKGRFTISRDNAKNTVYLQMNSMKAEVTAVYYCAADYNGEYDYWGQGSQVTVSS | low polyreactivity
